The source of these data is publication PMC11661447.

The assay concerns the target RNA-dependent RNA polymerase (RdRp) of HuNoV GII.4 Sydney strain (human norovirus GII.4 Sydney strain). Nature of the assay: SEC + AUC; purified RdRp alone, physiologically relevant conditions (pH 7.5); sedimentation velocity of 10 μM RdRp at 40,000 rpm, 22°C; monomer, dimers and higher-order oligomers.

For orientation: stoichiometry N means a count of units in the complex or per binding partner. Consider “RNA-dependent RNA polymerase (RdRp) of HuNoV GII.4 Sydney strain (enzyme)”, for which the percent as dimers was found to be 15%, the percent as monomer amounted to 75% and the stoichiometry N worked out at 2.
